Experimental data: paper PMC9829383

Target: Ecad ectodomain K14E mutant
Assay: single-molecule AFM dynamic force spectroscopy

How did the koff turn out when “Ecad ectodomain K14E mutant (domain or fragment)” was run?
Its koff is 0.78 s⁻¹.
